Test results taken from paper PMC2783965.
Where two headings read alike, the source gives them in different places.

Tests used:
Test in all cases: FRET or BRET
[1] = molecular target: 43S pre-initiation complex without eIF1 (40S•eIF1A-TAMRA•TC) (S. cerevisiae) (UniProt P38912)
[2] = molecular target: 43S pre-initiation complex without eIF1 (40S•eIF1A-TAMRA•TC) (S. cerevisiae) (UniProt P38912); remark: listed apart in the source
[3] = molecular target: 43S pre-initiation complex without eIF1 (40S•eIF1A-TAMRA•TC) (S. cerevisiae) (UniProt P38912); remark: listed apart in the source
[4] = molecular target: 43S pre-initiation complex without eIF1 (40S•eIF1A-TAMRA•TC) (S. cerevisiae) (UniProt P38912); remark: listed apart in the source
[5] = molecular target: 43S pre-initiation complex without eIF1 (40S•eIF1A-TAMRA•TC) (S. cerevisiae) (UniProt P38912); remark: listed apart in the source

Chain of UniProt P38912 (P38912 whole entry, looked up, one chain of several): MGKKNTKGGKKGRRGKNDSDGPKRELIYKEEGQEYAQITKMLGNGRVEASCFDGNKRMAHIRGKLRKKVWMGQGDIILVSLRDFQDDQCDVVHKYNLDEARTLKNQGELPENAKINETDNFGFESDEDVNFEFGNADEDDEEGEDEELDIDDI

| Substance | kobs of eIF1 dissociation (slow phase) [1] [s⁻¹] | kobs of eIF1 dissociation (slow phase) [2] [s⁻¹] | kobs of eIF1 dissociation (slow phase) [3] [s⁻¹] | kobs of eIF1 dissociation (slow phase) [4] [s⁻¹] | kobs of eIF1 dissociation (slow phase) [5] [s⁻¹] |
| --- | --- | --- | --- | --- | --- |
| fluorescein-labeled G107K eIF1 (from UniProt P32911 1-108) (natural protein) | 0.1 | 0.08 | – | – | – |
| fluorescein-labeled WT eIF1 (from UniProt P32911 1-108) (natural protein) | 0.4 | 0.13 | 0.4 | 0.14 | 0.56 |
